Test results from publication PMC4289673 (Proteins, 2014).

Target: the molecule itself
Experiment: crystal structure

B1: R47A hACMSD (enzyme)
chain: not shown
B1: binds.
